Experimental data reported in patent US20250109206A1 (CENTESSA PHARMACEUTICALS UK, published 2025).
Numbering of substitutions follows the chain as printed. Names and notes keep the numbering of the source.

T1: Cyno PD-L1 (cynomolgus, UniProt Q9NZQ7 19-127 (human entry), limits assumed)
T1 construct: also called cynomolgus PD-L1
T1 chain: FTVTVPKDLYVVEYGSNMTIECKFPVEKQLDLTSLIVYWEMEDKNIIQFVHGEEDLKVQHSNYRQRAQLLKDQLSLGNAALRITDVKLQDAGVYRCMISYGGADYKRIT

B1: LB213 after incubation with MMP12 (bispecific antibody)
heavy: not shown
light: not shown
chain: SCPPCPAPEAAGAPSVFLFPPKPKDTLMISRTPEVTCVVVDVSHEDPEVKFNWYVDGVEVHNAKTKPREEQYNSTYRVVSVLTVLHQDWLNGKEYKCKVSNKALPAPIEKTISKAKGQPREPQVCTLPPSRDELTKNQVSLSCAVKGFYPSDIAVEWESNGQPENNYKTTPPVLDSDGSFFLVSKLTVDKSRWQQGNVFSCSVMHEALHNHYTQKSLSLSPGK
notes: Digest of LB213 with human MMP12; a mixture of products; also called MMP12 treated LB213; digested LB213
B2: Anti-PD-L1 Fab mut-03 (S104W) (Fab, V domains shown)
VH: QVQLVQSGAEVKKPGSSVKVSCKTSGDTFSTYAISWVRQAPGQGLEWMGGIIPIFGKAHYAQKFQGRVTITADESTSTAYMELSSLRSEDTAVYFCARKFHFVWGSPFGMDVWGQGTTVTVSS
VL: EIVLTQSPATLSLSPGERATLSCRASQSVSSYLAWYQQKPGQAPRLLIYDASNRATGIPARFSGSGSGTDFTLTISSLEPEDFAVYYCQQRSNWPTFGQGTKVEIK
notes: Fab format; VH variant with WT VL; constant domains of the Fab not specified; also called mut-3
B3: Anti-PD-L1 Fab mut-47 (T31R) (Fab, V domains shown)
VH: B2 VH with T31R, W104S
VL: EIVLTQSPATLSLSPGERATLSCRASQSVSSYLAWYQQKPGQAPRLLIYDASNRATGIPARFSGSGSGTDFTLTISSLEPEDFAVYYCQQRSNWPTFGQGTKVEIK
notes: Fab format; VH variant with WT VL; constant domains of the Fab not specified
B4: Anti-PD-L1 Fab mut-15 (K57W) (Fab, V domains shown)
VH: B2 VH with K57W, W104S
VL: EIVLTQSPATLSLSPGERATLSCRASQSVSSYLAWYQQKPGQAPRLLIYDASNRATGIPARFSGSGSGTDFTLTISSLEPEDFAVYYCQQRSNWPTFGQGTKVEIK
notes: as for B3
B5: Anti-PD-L1 Fab mut-06 (S104R) (Fab, V domains shown)
VH: B2 VH with W104R
VL: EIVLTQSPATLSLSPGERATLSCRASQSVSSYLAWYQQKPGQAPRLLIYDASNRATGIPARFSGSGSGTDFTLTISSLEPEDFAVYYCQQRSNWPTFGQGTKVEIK
notes: Fab format; VH variant with WT VL; constant domains of the Fab not specified; also called mut-6; Mut-6
B6: Anti-PD-L1 Fab mut-49 (G56N) (Fab, V domains shown)
VH: B2 VH with G56N, W104S
VL: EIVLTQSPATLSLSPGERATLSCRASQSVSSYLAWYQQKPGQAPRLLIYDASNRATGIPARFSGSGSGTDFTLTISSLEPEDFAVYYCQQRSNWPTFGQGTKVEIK
notes: as for B3
B7: Anti-PD-L1 Fab mut-53 (S104R, T31Q) (Fab, V domains shown)
VH: B2 VH with T31Q, W104R
VL: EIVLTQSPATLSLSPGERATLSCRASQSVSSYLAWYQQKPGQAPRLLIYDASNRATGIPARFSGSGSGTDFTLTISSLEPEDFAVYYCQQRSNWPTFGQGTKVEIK
notes: as for B3
B8: Anti-PD-L1 Fab mut-20 (I54Y) (Fab, V domains shown)
VH: B2 VH with I54Y, W104S
VL: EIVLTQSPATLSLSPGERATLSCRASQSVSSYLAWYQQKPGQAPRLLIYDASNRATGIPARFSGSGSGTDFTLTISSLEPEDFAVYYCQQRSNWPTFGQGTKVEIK
notes: as for B3
B9: Anti-PD-L1 Fab mut-39 (K57F) (Fab, V domains shown)
VH: B2 VH with K57F, W104S
VL: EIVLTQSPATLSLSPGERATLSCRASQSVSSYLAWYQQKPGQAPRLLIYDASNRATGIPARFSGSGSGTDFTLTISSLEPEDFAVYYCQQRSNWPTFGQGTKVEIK
notes: as for B3
B10: Anti-PD-L1 Fab mut-51 (S104R, G56Q, T31Q) (Fab, V domains shown)
VH: B2 VH with T31Q, G56Q, W104R
VL: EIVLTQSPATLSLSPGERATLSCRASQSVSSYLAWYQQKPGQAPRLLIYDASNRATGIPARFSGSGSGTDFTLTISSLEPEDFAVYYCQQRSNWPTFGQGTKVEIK
notes: as for B3
B11: Anti-PD-L1 Fab mut-46 (I54R) (Fab, V domains shown)
VH: B2 VH with I54R, W104S
VL: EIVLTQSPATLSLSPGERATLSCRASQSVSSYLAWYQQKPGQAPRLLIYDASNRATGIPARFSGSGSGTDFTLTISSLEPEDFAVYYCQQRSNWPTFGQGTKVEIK
notes: as for B3
B12: Anti-PD-L1 Fab mut-04 (I54K) (Fab, V domains shown)
VH: B2 VH with I54K, W104S
VL: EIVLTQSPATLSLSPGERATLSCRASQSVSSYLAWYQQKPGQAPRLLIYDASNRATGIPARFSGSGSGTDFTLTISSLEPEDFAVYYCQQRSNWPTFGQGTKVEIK
notes: Fab format; VH variant with WT VL; constant domains of the Fab not specified; also called mut-4
B13: Anti-PD-L1 Fab mut-48 (T31Q) (Fab, V domains shown)
VH: B2 VH with T31Q, W104S
VL: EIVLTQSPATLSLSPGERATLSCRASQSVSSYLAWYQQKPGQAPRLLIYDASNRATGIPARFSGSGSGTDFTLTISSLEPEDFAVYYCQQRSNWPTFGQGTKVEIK
notes: as for B3
B14: Anti-PD-L1 Fab mut-28 (S104N) (Fab, V domains shown)
VH: B2 VH with W104N
VL: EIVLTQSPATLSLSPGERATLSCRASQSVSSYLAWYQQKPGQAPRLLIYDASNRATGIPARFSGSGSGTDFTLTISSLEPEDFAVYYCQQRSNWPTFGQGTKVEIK
notes: as for B3
B15: Anti-PD-L1 Fab mut-23 (G56H) (Fab, V domains shown)
VH: B2 VH with G56H, W104S
VL: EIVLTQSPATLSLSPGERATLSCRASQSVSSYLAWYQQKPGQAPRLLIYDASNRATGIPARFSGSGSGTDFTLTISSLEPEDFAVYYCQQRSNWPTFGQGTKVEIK
notes: as for B3
B16: Anti-PD-L1 Fab mut-43 (G56Q) (Fab, V domains shown)
VH: B2 VH with G56Q, W104S
VL: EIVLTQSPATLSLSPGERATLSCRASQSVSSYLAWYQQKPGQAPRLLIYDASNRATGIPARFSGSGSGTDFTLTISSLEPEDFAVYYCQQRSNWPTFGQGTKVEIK
notes: as for B3
B17: Anti-PD-L1 Fab mut-22 (A33H) (Fab, V domains shown)
VH: B2 VH with A33H, W104S
VL: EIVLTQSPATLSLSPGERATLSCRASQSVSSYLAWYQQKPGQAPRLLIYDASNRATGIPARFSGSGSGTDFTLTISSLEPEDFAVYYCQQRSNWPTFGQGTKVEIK
notes: as for B3
B18: Anti-PD-L1 Fab mut-52 (S104R, G56Q) (Fab, V domains shown)
VH: B2 VH with G56Q, W104R
VL: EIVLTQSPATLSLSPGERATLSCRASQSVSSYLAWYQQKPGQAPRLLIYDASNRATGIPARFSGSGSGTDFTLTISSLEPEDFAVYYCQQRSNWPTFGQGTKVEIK
notes: as for B3
B19: Anti-PD-L1 Fab mut-34 (K57M) (Fab, V domains shown)
VH: B2 VH with K57M, W104S
VL: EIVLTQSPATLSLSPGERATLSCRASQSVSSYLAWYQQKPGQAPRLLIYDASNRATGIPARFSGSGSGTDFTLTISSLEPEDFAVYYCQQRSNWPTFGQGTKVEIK
notes: as for B3
B20: Anti-PD-L1 Fab mut-44 (I52F) (Fab, V domains shown)
VH: B2 VH with I52F, W104S
VL: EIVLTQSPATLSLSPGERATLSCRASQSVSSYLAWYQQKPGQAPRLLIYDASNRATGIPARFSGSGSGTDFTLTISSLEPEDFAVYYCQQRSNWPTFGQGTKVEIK
notes: as for B3
B21: Anti-PD-L1 Fab mut-54 (G56Q, T31Q) (Fab, V domains shown)
VH: B2 VH with T31Q, G56Q, W104S
VL: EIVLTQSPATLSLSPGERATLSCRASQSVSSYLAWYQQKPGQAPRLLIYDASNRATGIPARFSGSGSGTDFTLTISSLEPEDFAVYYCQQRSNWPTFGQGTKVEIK
notes: as for B3
B22: Anti-PD-L1 Fab mut-08 (K57R) (Fab, V domains shown)
VH: B2 VH with K57R, W104S
VL: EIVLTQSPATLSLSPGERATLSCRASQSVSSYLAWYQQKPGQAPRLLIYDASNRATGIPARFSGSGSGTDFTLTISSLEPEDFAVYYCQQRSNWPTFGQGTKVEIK
notes: Fab format; VH variant with WT VL; constant domains of the Fab not specified; also called mut-8
B23: Anti-PD-L1 Fab mut-27 (K57D) (Fab, V domains shown)
VH: B2 VH with K57D, W104S
VL: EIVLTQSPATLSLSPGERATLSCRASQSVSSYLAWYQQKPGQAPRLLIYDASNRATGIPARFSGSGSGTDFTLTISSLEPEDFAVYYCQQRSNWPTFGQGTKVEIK
notes: as for B3
B24: Anti-PD-L1 Fab mut-07 (I54W) (Fab, V domains shown)
VH: B2 VH with I54W, W104S
VL: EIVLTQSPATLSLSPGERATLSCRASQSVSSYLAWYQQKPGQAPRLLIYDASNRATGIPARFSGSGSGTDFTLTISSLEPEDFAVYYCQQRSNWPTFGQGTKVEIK
notes: Fab format; VH variant with WT VL; constant domains of the Fab not specified; also called mut-7
B25: Anti-PD-L1 Fab mut-42 (I54Q) (Fab, V domains shown)
VH: B2 VH with I54Q, W104S
VL: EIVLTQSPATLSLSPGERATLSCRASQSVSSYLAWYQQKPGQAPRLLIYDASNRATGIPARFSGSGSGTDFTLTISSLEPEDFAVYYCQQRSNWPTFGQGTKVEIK
notes: as for B3
B26: Anti-PD-L1 Fab mut-50 (Q62E) (Fab, V domains shown)
VH: B2 VH with Q62E, W104S
VL: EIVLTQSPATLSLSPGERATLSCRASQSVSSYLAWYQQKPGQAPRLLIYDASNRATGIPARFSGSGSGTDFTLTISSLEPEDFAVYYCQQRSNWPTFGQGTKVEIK
notes: as for B3
B27: Anti-PD-L1 Fab mut-14 (S104D) (Fab, V domains shown)
VH: B2 VH with W104D
VL: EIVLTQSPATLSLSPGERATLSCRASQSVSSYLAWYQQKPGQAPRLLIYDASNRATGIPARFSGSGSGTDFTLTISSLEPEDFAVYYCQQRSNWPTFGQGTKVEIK
notes: as for B3
B28: CD3-IgG-001 (antibody, V domains shown)
VH: EVQLVESGGGLVQPGGSLRLSCAASGFTFNTYAMNWVRQAPGKGLEWVARIRSKYNNYATYYADSVKDRFTISRDDSQSILYLQMNSLKTEDTAVYYCVRHGNFGNSYVSWFAYWGQGTLVTVSS
VL: QAVVTQEPSLTVSPGGTVTLTCRSSTGAVTTSNYANWVQQKPDHLPRALIGGTNKRAPGTPARFSGSLLGDKAALTLSGVQPEDEAEYYCALWYSNLWVFGGGTKLTVL
B29: mouse SP34 IgG (antibody, V domains shown)
VH: B28 VH with G15K, R19K, S87N, V95M
VL: QAVVTQESALTTSPGETVTLTCRSSTGAVTTSNYANWVQEKPDHLFTGLIGGTNKRAPGVPARFSGSLIGDKAALTITGAQTEDEAIYFCALWYSNLWVFGGGTKLTVL
B30: CD3-IgG-002 (antibody, V domains shown)
VH: B28 VH with A49G, D68G, Q78K, S79N, I80S, V99A
VL: B28 VL with T60V, L77I, V80A, E87I
B31: LB218 after incubation with MMP12 (bispecific antibody)
heavy: not shown
light: not shown
chain: B1 chain
notes: Digest of LB218 with human MMP12; a mixture of products; also called MMP12 treated LB218; digested LB218
B32: LB218 (intact) (bispecific antibody, human IgG1, kappa, lambda)
heavy: not shown
light: not shown
chain: B1 chain
notes: Asymmetric LockBody, uncleaved; also called intact LB218
B33: LB213 (intact) (bispecific antibody, human IgG1, kappa, lambda)
heavy: not shown
light: not shown
chain: B1 chain
notes: Asymmetric LockBody, uncleaved; also called intact LB213

target: T2, Human PD-L1 (human, UniProt Q9NZQ7 19-127, limits assumed); test: ELISA on plate-coated human PD-L1, sample pre-incubated with MMP12 for 5 min
T2 construct: also called huPD-L1; hPD-L1

Row | EC50 (read off the curve) [nM] | Binder
1 | ~0.2 | B1

target: T2, Human PD-L1; test: SPR, Fab

Row | Kd [nM] | Binder
2 | 1.1 | B2
3 | 0.594 | B3
4 | 1.69 | B4
5 | 0.0857 | B5
6 | 0.224 | B6
7 | 0.0217 | B7
8 | 0.875 | B8
9 | 1.54 | B9
10 | 0.0157 | B10
11 | 1.04 | B11
12 | 0.857 | B12
13 | 0.249 | B13
14 | 0.501 | B14
15 | 0.195 | B15
16 | 0.204 | B16
17 | 1.84 | B17
18 | 0.0214 | B18
19 | 3.58 | B19
20 | 0.542 | B20
21 | 0.0722 | B21
22 | 0.489 | B22
23 | 5.58 | B23
24 | 4.25 | B24
25 | 3.99 | B25
26 | 0.124 | B26
27 | 3.36 | B27

Target: T1, Cyno PD-L1
Test: SPR, Fab

Row | Kd [nM] | binding result | Binder
28 | 13.6 |  | B2
29 | 9.32 |  | B3
30 | 10.5 |  | B4
31 | 2.86 |  | B5
32 | 3.53 |  | B6
33 | 0.288 |  | B7
34 | 15.9 |  | B8
35 | 3.96 |  | B9
36 | 0.18 |  | B10
37 | 12.7 |  | B11
38 | 10.8 |  | B12
39 | 3.24 |  | B13
40 | 5.51 |  | B14
41 | 3.02 |  | B15
42 | 2.73 |  | B16
43 | 20 |  | B17
44 | 0.298 |  | B18
45 | 5.82 |  | B19
46 | 6.85 |  | B20
47 | 0.631 |  | B21
48 | 6.48 |  | B22
49 |  | no binding | B23
50 | 143 |  | B24
51 | 5.98 |  | B25
52 | 4.82 |  | B26
53 | 29.3 |  | B27

target: human CD3 on Jurkat cells (human, UniProt P07766 23-207); test: cell-based or functional assay
Sequence (P07766 23-207): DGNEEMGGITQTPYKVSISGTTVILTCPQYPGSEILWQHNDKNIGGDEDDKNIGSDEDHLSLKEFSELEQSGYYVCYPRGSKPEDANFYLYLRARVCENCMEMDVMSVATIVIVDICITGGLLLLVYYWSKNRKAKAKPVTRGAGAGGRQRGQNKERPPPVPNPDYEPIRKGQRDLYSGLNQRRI

Row | EC50, CD3 activation signal in Jurkat reporter cell line (luciferase) [nM] | fold difference of apparent EC50 against SP34 / Anti-CD3-IgG-001, Jurkat reporter [fold] | Binder
54 | 0.2 |  | B28
55 | 0.2 |  | B29
56 | 0.9 | ~5 | B30

target: T2, Human PD-L1; test: ELISA on plate-coated human PD-L1, sample pre-incubated with MMP12 for 5 min; remark: another data set of the same source

Row | EC50 (read off the curve) [nM] | Binder
57 | ~0.1 | B31

target: T2, Human PD-L1; test: ELISA on plate-coated human PD-L1, sample pre-incubated with MMP12 for 30 min

Row | EC50 (read off the curve) [nM] | Binder
58 | ~0.5 | B31

target: T2, Human PD-L1; test: as above; remark: another data set of the same source

Row | EC50 (read off the curve) [nM] | Binder
59 | ~0.3 | B1

target: T2, Human PD-L1; test: ELISA on plate-coated human PD-L1, sample pre-incubated with MMP12 for 15 min

Row | EC50 (read off the curve) [nM] | Binder
60 | ~0.2 | B1

target: T2, Human PD-L1; test: ELISA on plate-coated human PD-L1, sample pre-incubated with MMP12 for 60 min

Row | EC50 (read off the curve) [nM] | Binder
61 | ~0.7 | B31

target: T2, Human PD-L1; test: ELISA on plate-coated human PD-L1, corrected absorbance 450-570 nm
Protocol: For ELISA binding assays, 384 well or 96 well plates were coated with […] and incubated overnight at 4° C., protected from light. Plates were washed twice with PBS/0.05% Tween 20 before blocking with block buffer (3% milk protein in PBS) for 1 hour at room temperature. Next, test agent or controls were loaded and incubated for 1 hour at room temperature. Plates were then washed three times with PBS/0.05% Tween 20. Finally, HRP conjugated secondary antibody, diluted 1/5,000 in block buffer, was added and incubated for 1 hour at room temperature. Plates were again washed three times with PBS/0.05% Tween before addition of TMB substrate and incubation for 6 minutes at room temperature. Subsequently, the reaction was stopped with stop solution. Absorbance was read at 450 nm and 570 nm. Absorbance at 570 nm was subtracted from absorbance at 450 nm for each plate.

Row | EC50 (read off the curve) [nM] | Binder
62 | ~0.2 | B32
63 | ~0.2 | B33

target: T2, Human PD-L1; test: ELISA on plate-coated human PD-L1, sample pre-incubated with MMP12 for 60 min; remark: another data set of the same source

Row | EC50 (read off the curve) [nM] | Binder
64 | ~0.5 | B1

target: T2, Human PD-L1; test: ELISA on plate-coated human PD-L1, sample pre-incubated with MMP12 for 15 min; remark: another data set of the same source

Row | EC50 (read off the curve) [nM] | Binder
65 | ~0.2 | B31
